Source: US20190185532A1 (UNIVERSITY OF BIRMINGHAM, published 2019)

Key:
[1] = target: T1, MMRN2^EMI-CC (EMI and coiled-coil domains of human MMRN2, His tag) (human, UniProt Q9H8L6 23-820); assay: far western blot, reduced; HEK293T lysates of His-tagged MMRN2 constructs probed with CLEC14A-ECD-Fc
T1 construct: domain: EMI and coiled-coil; HEK293T lysate, blotted under reducing conditions; not shown: C-terminal BirA and His tags of vector pHL-Avitag3
T1 sequence (looked up): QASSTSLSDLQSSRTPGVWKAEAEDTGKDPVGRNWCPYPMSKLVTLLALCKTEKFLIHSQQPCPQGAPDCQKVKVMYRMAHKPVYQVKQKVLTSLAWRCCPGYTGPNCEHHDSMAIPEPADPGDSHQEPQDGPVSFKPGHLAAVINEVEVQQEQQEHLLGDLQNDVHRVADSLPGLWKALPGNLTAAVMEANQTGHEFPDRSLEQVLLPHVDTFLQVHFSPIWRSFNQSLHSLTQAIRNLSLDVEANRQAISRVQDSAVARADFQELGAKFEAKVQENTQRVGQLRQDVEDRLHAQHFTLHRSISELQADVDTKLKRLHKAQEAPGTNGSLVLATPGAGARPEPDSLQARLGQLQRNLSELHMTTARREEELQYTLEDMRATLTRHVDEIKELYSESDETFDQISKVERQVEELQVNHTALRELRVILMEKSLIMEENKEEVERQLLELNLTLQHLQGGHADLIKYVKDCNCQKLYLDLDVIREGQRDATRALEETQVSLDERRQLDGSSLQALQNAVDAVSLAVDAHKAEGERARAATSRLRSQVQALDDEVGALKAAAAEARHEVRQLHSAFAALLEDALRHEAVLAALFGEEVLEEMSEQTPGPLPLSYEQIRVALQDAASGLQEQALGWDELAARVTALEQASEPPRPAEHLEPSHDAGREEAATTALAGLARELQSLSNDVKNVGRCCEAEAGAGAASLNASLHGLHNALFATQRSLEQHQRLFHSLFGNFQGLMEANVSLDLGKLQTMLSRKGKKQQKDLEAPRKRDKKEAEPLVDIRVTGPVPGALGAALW
From the text: (§1) FIG. 2. […] (A) Diagrams of MMRN2 truncation mutants, showing the elastin microfibril interface (EMI) domain, coiled-coil (CC) domain and complement related C1q domain. The minimal CLEC14A binding fragment is highlighted in black. (B,C) HEK293T were transfected with truncation mutants. Lysates were far western blotted under reduced conditions with CLEC14A extracellular domain fused to an Fc tag (CLEC14A-ECD-Fc) and western blotted by use of His tag antibodies. (B) The smallest binding fragment was identified as MMRN2⁴⁸⁷⁻⁸²⁰, MMRN2^FL fails to bind CLEC14A-ECD-Fc. (C) The smallest MMRN2 fragment binding CLEC14A is MMRN2⁵³⁰⁻⁶²⁴. (D) MMRN2⁴⁹⁵⁻⁶⁷⁴ and MMRN2⁴⁹⁵⁻⁶⁰³ bind to streptavidin under reducing conditions after biotinylation. (E) Flow cytometry histograms of HEK293T transfected with GFP tagged CTLD group 14 family members and stained with biotinylated MMRN2⁴⁹⁵⁻⁶⁷⁴ (grey line), confirming binding to CLEC14A and CD93 but not thrombomodulin. Streptavidin-PE was used as a control for background binding (grey shaded).
(§2) Whole cell protein lysates were made by incubating with lysis buffer (1% (v/v) NP40, 10 mM Tris pH7.5, 150 mM NaCl and 1 mM EDTA) and pelleting insoluble material. […] The epitope tag of each probed protein was detected with secondary antibody incubation (anti-His or anti-Fc HRP conjugate) and then tertiary anti-mouse HRP for the case of anti-His.

[2] = target: T2, MMRN2^CC-C1q (coiled-coil and C1q domains of human MMRN2, His tag) (human, UniProt Q9H8L6 133-949); assay: as above
T2 construct: domain: coiled-coil and C1q; HEK293T lysate, blotted under reducing conditions; not shown: C-terminal BirA and His tags of vector pHL-Avitag3
T2 sequence (looked up): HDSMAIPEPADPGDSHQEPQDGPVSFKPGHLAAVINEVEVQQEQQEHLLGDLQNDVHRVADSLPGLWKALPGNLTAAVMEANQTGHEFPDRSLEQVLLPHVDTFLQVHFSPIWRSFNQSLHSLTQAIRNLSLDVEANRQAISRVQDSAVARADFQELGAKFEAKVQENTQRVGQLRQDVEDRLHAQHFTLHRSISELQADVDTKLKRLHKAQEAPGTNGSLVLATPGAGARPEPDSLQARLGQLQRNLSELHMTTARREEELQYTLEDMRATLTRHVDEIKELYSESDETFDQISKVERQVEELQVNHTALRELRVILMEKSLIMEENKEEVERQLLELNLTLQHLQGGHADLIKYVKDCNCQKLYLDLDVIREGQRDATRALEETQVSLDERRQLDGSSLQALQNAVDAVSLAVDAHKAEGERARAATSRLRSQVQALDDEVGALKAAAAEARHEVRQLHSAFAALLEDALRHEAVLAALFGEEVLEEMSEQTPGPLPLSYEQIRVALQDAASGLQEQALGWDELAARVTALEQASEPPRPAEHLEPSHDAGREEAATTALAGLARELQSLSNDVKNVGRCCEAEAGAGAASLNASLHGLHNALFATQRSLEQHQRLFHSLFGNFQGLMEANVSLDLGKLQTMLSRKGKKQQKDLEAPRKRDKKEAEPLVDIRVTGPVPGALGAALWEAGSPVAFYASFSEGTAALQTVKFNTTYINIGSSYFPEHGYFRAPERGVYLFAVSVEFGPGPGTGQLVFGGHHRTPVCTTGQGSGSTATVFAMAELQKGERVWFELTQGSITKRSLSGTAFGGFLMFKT
From the text: as §1, §2

binding result [1]: binds
binding result [2]: binds
B1: CLEC14A-ECD-Fc (human CLEC14A extracellular domain fused to an Fc tag) (Fc fusion)
chain: EHPTADRAGCSASGACYSLHHATMKRQAAEEACILRGGALSTVRAGAELRAVLALLRAGPGPGGGSKDLLFWVALERRRSHCTLENEPLRGFSWLSSDPGGLESDTLQWVEEPQRSCTARRCAVLQATGGVEPAGWKEMRCHLRANGYLCKYQFEVLCPAPRPGAASNLSYRAPFQLHSAALDFSPPGTEVSALCRGQLPISVTCIADEIGARWDKLSGDVLCPCPGRYLRAGKCAELPNCLDDLGGFACECATGFELGKDGRSCVTSGEGQPTLGGTGVPTRRPPATATSPVPQRTWPIRVDEKLGETPLVPEQDNSVTSIPEIPRWGSQSTMSTLQMSLQAESKATITPSGSVISKFNSTTSSATPQAFDSSS
notes: Expressed in HEK293T cells; also called hCLEC14A-ECD-Fc; C14A-Fc; not shown: human IgG Fc tag
